Assay results: article PMC8049080

Tests used:
[1] = molecular target: dopamine D2 receptor, long isoform, p.Ile212Phe variant (UniProt P14416); assay: FRET or BRET; HEK293 cells 48 hours after transfection, in phosphate-buffered saline with 0.1 mM CaCl2 and 0.5 mM MgCl2, ~100,000 cells/well; quinpirole (20-minute stimulation) followed by coelenterazine h at room temperature; agonist-induced recruitment, expressed as percentage of maximum recruitment by D2-WT
[2] = molecular target: dopamine D2 receptor, short isoform, p.Ile212Phe variant (UniProt P14416); assay: as above

Q: For “arrestin3 (from UniProt P32121 1-409) (natural protein)”, which maximal recruitment, percent of that by D2L-WT [1] is on record?
A: The maximal recruitment, percent of that by D2L-WT was 48%.

Q: What about the maximal recruitment, percent of that by D2S-WT [2] of the same substance?
A: The maximal recruitment, percent of that by D2S-WT was 68%.
